Measured values: patent publication US7235648B1, “Yeast cells engineered to produce pheromone system protein surrogates, and uses therefor” (Cadus Technologies, Inc., priority 1993, dated 2007)
Changes are numbered by the printed parent chain. One block for each molecule: values may come before it. Ends that are not written are not given here.

How the values were obtained:
yeast Gβγ = target: T1, yeast Gβγ (Saccharomyces cerevisiae, UniProt P18851+P18852); experiment: Coupling of Gα subunits and hybrids to yeast Gβγ: complementation of gpa1 growth arrest phenotype and fus1-HIS3 transcription; format: cell-based
T1 construct: Endogenous Gβγ subunits will be provided by the yeast STE4 and STE18 loci; endogenous in cells; host or cells: S. cerevisiae gpa1 tester strains
T1 sequence (P18851 1-423): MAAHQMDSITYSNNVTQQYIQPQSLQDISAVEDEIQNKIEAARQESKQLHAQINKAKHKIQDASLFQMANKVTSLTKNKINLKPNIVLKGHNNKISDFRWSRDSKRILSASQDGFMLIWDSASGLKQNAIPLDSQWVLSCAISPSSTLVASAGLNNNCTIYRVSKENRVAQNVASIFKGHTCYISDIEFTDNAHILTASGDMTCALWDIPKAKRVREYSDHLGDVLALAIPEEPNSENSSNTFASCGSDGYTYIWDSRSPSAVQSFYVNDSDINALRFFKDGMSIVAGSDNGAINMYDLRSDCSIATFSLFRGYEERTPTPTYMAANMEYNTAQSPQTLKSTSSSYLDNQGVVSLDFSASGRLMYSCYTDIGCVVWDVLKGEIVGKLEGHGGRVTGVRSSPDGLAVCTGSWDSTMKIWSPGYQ
T1 sequence (P18852 1-107 limits assumed): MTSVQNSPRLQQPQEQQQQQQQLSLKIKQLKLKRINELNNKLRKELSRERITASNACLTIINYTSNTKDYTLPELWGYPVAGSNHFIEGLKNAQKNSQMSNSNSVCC
Description: We have tested the hypothesis that there are switch region determinants involved in the association of Gα with Gβγ by constructing a series of hybrid Gα proteins encoding portions of GPA1 and GαS in different combinations (FIG. 11).
Preferably, levels of Gα and Gβγ subunits are balanced. For example, heterologous Gα subunits may be expressed from a low copy (CEN ARS) vector containing the endogenous yeast GPA1 promotor and the GPA1 3′ untranslated region. The minimum criterion, applied to a heterologous Gα subunit with respect to its ability to couple functionally to the yeast pheromone pathway, is that it complement a gpa1 genotype when expressed from the GPA1 promoter on low copy plasmids or from an integrated, single copy gene. In the work described in this application, all heterologous Gα subunits have been assayed in two biological systems.

STE2 receptor = target: T2, STE2 receptor (Saccharomyces cerevisiae, UniProt D6VTK4); experiment: Autocrine MATa yeast (CY588/CY1455) growth on histidine-deficient medium plus aminotriazole, fus1-HIS3 readout; format: cell-based; conditions: for agonist activity on the STE2 receptor, α-Mid-5 library: CY1455, -His medium with 0.5 mM or 1 mM aminotriazole, starburst phenotype
T2 construct: endogenous in cells; host or cells: S. cerevisiae MATa CY588 / CY1455
T2 sequence (D6VTK4 1-431): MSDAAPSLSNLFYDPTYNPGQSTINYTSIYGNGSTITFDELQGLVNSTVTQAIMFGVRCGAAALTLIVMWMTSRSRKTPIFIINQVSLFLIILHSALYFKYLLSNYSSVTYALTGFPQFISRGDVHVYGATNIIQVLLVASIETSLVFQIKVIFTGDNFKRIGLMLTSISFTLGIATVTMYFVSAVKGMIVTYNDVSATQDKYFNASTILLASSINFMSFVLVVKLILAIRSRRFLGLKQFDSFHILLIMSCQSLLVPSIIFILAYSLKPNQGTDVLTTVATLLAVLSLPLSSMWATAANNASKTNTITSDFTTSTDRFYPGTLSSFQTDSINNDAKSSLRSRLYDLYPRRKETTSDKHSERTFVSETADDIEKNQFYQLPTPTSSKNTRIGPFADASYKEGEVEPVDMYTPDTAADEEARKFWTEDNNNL
Description: A MATa strain designed for the expression of peptides in the context of MFα1 (i.e., using the MFα1 expression vector. Cadus 1215) has been constructed. The genotype of this strain, which we designate CY588, is MATa bar1 far1-1 fus1-HIS3 ste14::TRP1 ura3 trp1 leu2 his3. The bar1 mutation eliminates the strain's ability to produce a protease that degrades α-factor and that may degrade some peptides encoded by the cloned oligonucleotides; the far1 mutation abrogates the arrest of growth which normally follows stimulation of the pheromone response pathway; an integrated FUS1-HIS3 hybrid gene provides a selectable signal of activation of the pheromone response pathway; and, finally, the ste14 mutation lowers background of the FUS1-HIS3 readout. The enzymes responsible for processing of the MFα1 precursor in MATα cells are also expressed in MATa cells (Sprague and Thorner, in The Molecular and Cellular Biology of the Yeast Saccharomyces: Gene Expression, 1992. Cold Spring Harbor Press), therefore, CY588 cells should be able to secrete peptides encoded by oligonucleotides expressed from plasmid Cadus 1215.
Experiments were performed to test: 1. the ability of Cadus 1215 to function as a vector for the expression of peptides encoded by synthetic oligonucleotides; 2. the suitability of the oligonucleotides, as designed, to direct the secretion of peptides through the α-factor secretory pathway; 3. the capacity of CY588 to secrete those peptides; and 4. the ability of CY588 to respond to those peptides that stimulate the pheromone response pathway by growing on selective media. These experi-ments were performed using an oligonucleotide which encodes the 13 amino acid α-factor; i.e., the degenerate sequence (NNN)n in the oligonucleotide cloned into Cadus 1215 (see above) was specified (n=13) to encode this pheromone. CY588 was transformed with the resulting plasmid (Cadus 1219), and transformants selected on uracil-deficient medium were transferred to histidine-deficient medium supplemented with a range of concentrations of aminotriazole (an inhibitor of the HIS3 gene product that serves to reduce background growth). […] CY588 is competent for the secretion of a peptide encoded by the (NNN)n sequence of the synthetic oligonucleotide cloned into and expressed from Cadus 1215; and 2. CY588 can, in an autocrine fashion, respond to a secreted peptide which stimulates its pheromone response pathway, in this case by α-factor binding to STE2. Additional experiments were performed to test the utility of autocrine yeast strains in identifying agonists of the Ste2 receptor from among members of two semi-random α-factor libraries, α-Mid-5 and MFα-8. α-Mid-5 Library
To identity peptide members of the α-Mid-5 library that could act as agonists on the STE2 receptor. CY1455, a high transforming version of CY588, was electroporated to enhance uptake of α-Mid-5 DNA. Transformants were selected on uracil-deficient (-Ura) synthetic complete medium and were transferred to histidine-deficient (-His) synthetic complete medium supplemented with 0.5 mM or 1 mM aminotriazole.
Yeast able to grow on -His+aminotriazole medium include (1) yeast which are dependent on the expression of an α-factor variant agonist and (2) yeast which contain mutations that result in constitutive signalling along the pheromone pathway. […] Thus a recognizable formation (termed a “starburst”) results, consisting of a central colony, growing by virtue of autocrine stimulation of the pheromone pathway, surrounded by satellite colonies, growing by virtue of paracrine stimulation of the pheromone pathway by the agonist peptide as that ptpetide diffuses radially fromn the central, secreting colony.
In order to identify the peptide sequence responsible for this “starburst” phenomenon, yeast were transferred from the center of the “starburst” and streaks were made on -Ura medium to obtain single colonies. […]

functional complementation of the growth arrest phenotype of gpa1 strains (yeast Gβγ): functionally complement
Molecule: GPA41-S: N-terminal 41 amino acids of GPA1 linked to Gαs sequence 42-394

Molecule: Trp His Tip Leu Thr Leu MetAla Gly Gin Pro Met Tyr (WHWLTLMAGQPMY) [M3]
agonist activity on the STE2 receptor, α-Mid-5 library (STE2 receptor): agonists

Molecule: Trp His Trp Leu Gln Leu Lys Pro Gly Gln Pro Met Tyr (chain 1 WHWLQLKPGQPMY; chain 2 WHWLQLKPGQPMY) [α-factor, yeast tridecapeptide mating pheromone, reference compound]
ability to grow on histidine-deficient media supplemented with aminotriazole (autocrine response, α-factor binding to STE2) (STE2 receptor; CY588 transformed with Cadus 1219, range of aminotriazole concentrations): ability to grow on histidine-deficient media supplemented with aminotriazole

Molecule: WHWLQLSAGQPMY [M4]
agonist activity on the STE2 receptor, α-Mid-5 library (STE2 receptor): agonists

Molecule: WHWLRLQPGQPMY [M9]
agonist activity on the STE2 receptor, α-Mid-5 library (STE2 receptor): agonists

Molecule: WHWLRLQSGQPMY [M5]
agonist activity on the STE2 receptor, α-Mid-5 library (STE2 receptor): agonists

Molecule: WHWLRLSAGQPMY [M6]
agonist activity on the STE2 receptor, α-Mid-5 library (STE2 receptor): agonists

Molecule: WHWLSLDAGQPMY [M2]
agonist activity on the STE2 receptor, α-Mid-5 library (STE2 receptor): agonists

Molecule: WHWLSLSPGQPMY [M1]
agonist activity on the STE2 receptor, α-Mid-5 library (STE2 receptor): agonists

Molecule: WHWLSLVPGQPMY [M7]
agonist activity on the STE2 receptor, α-Mid-5 library (STE2 receptor): agonists

Molecule: WHWLSLYPGQPMY [M8]
agonist activity on the STE2 receptor, α-Mid-5 library (STE2 receptor): agonists

functional complementation of the growth arrest phenotype of gpa1 strains (yeast Gβγ): functionally complement
B1: GPA141-Gαi3: first 41 amino acids of GPA1 fused to human Gαi3 (protein)
chain: MGCTVSTQTIGDESDPFLQNKRANDVIEQSLQLEKQRDKNEVKLLLLGAGESGKSTIVKQMKIIHE

functional complementation of the growth arrest phenotype of gpa1 strains (yeast Gβγ): functionally complement
B2: GPA41-Gα16: first 41 amino acids of GPA1 fused to Gα16 (protein)
chain: B1 chain with V42L, A49P, I57F, V58I, K62R, E66G

functional complementation of the growth arrest phenotype of gpa1 strains (yeast Gβγ): do not
B3: GPA41-Gαob: first 41 amino acids of GPA1 fused to Gαob (protein)
chain: MGCTVSTQTIGDESDPFLQNKRANDVIEQSLQLEKQRDKNEVKLLLLGAGESGKSTIVKQMKIIHEDGFSGEDVKQYKPVVYSNTIQSLAAIVRAMDTLGIEYGDKERKADAKMVCDVVSRMEDTEPFSAELLSAMMRLWGDSGIQECFNRSREYQLNDSAKYYLDSLDRIGAADYQPTEQDILRTRVKTTGIVETHFTFKNLHFRLFDVGGQRSERKKWIHCFEDVTAIIFCVALSGYDQVLHEDETTNRMHESLKLFDSICNNKWFTDTSIILFLNKKDIFEEKIKKSPLTICFPEYTGPSAFTEAVAYIQAQYESKNKSAHKEIYTHVTCATDTNNIQFVFDAVTDVIIAKNLRGCGLY

functional complementation of the growth arrest phenotype of gpa1 strains (yeast Gβγ): do not
B4: GPA41-Gαoa: first 41 amino acids of GPA1 fused to Gαoa (protein)
chain: MGCTVSTQTIGDESDPFLQNKRANDVIEQSLQLEKQRDKNEVKLLLLGAGESGKSTIVKQMKIIHEDGFSGEDVKQYKPVVYSNTIQSLAAIVRAMDTLGIEYGDKERKADAKMVCDVVSRMEDTEPFSAELLSAMMRLWGDSGIQECFNRSREYQLNDSAKYYLDSLDRIGAADYQPTEQDILRTRVKTTGIVETHFTFKNLHFRLFDVGGQRSERKKWIHCFEDVTAIIFCVALSGYDQVLHEDETTNRMHESLMLFDSICNNKFFIDTSIILFLNKKDLFGEKIKKSPLTICFPEYTGPNTYEDAAAYIQAQFESKNRSPNKEIYCHMTCATDTNNIQVVFDAVTDIIIANNLRGCGLY
